± gives the uncertainty stated by the source.
Assay: protein stability index of a GFP-peptide fusion (yeast GPS) (PSI 1-4); higher = more stable; sorted into four equal gates, so the index is relative within each strain
Method in brief: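 Peptides tiling yeast proteins in 17-residue segments were fused downstream of GFP, with Cherry expressed from the same plasmid. As a pooled library in yeast, mid-log cultures grown in leucine-free medium were sorted into four equal gates by GFP/Cherry fluorescence ratio. Gate plasmids were PCR-amplified and Illumina-sequenced, and barcodes linked reads to strains. Each peptide received a protein stability index equal to the sum of each gate's read frequency times its gate number.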

Sequence | protein stability index (doa10∆) | protein stability index (pdr5∆) | protein stability index (san1∆) | protein stability index (ubr1∆)
MEGNAQPVNFNRSWDHA [RPO31] | 2.22 ± 0.11 | 2.31 ± 0.071 | 2.39 ± 0.13 | 2.35 ± 0.067
VNLSQEALQYDPQPFLK [SNU114] | 2.99 ± 0.056 | 2.84 ± 0.061 | 2.97 ± 0.044 | 3 ± 0.046
IDMESDVEDDDKETQLK [POP7] | 1.67 ± 0.054 | 1.92 ± 0.048 | 1.62 ± 0.088 | 1.98 ± 0.031
KGLQIYQSSVQEPFLNS [PRP8] | 2.89 ± 0.05 | 2.94 ± 0.044 | 2.76 ± 0.048 | 2.83 ± 0.04
TPSLPIAPPVAPHDSEA [SNF5] | 2.6 ± 0.07 | 2.48 ± 0.074 | 3.23 ± 0.064 | 2.52 ± 0.066
IFKDKEKLVSDLRLIKV [SMC1] | 3.25 ± 0.26 | 3.23 ± 0.089 | 3.31 ± 0.21 | 3.44 ± 0.15
KLDSKKTVPFQVNQLQR [SSN3] | 3.15 ± 0.063 | 3.28 ± 0.042 | 3.19 ± 0.046 | 3.12 ± 0.049
RFQDPYVAIVVDPLKSL [RRI1] | – | 2.79 ± 0.13 | 2.26 ± 0.2 | 2.69 ± 0.13
YVKSLHKQISAEDLTIA [SIN4] | 2.82 ± 0.14 | 3.19 ± 0.11 | 2.8 ± 0.2 | 2.77 ± 0.085
DIYKSHLDNSKSVFSSA [RPN1] | 2.69 ± 0.056 | 2.77 ± 0.041 | 2.67 ± 0.051 | 2.66 ± 0.063
TYANVLIPCKYLNRHAD [RPN7] | 1.1 ± 0.08 | 1.25 ± 0.089 | 1.18 ± 0.13 | 1.19 ± 0.095
KEQYNRYRDLMISCLMN [MTR3] | 2.07 ± 0.085 | 2.41 ± 0.053 | 2.4 ± 0.07 | 2.46 ± 0.086
LRTEYGWDSLASRNVWS [SNU114] | 2.85 ± 0.099 | 3.11 ± 0.12 | 3.4 ± 0.099 | 3.38 ± 0.076
LLGYTGIPTDKGPRFRK [PRE8] | 2.81 ± 0.18 | 3.02 ± 0.14 | 2.66 ± 0.066 | 2.98 ± 0.11
VTKLNVLVDEIKSQYYS [YIL149C/MLP2] | 2.36 ± 0.066 | 2.33 ± 0.052 | 2.35 ± 0.074 | 2.28 ± 0.037
RELYKYVRKHDPLNSNI [PRP28] | 2.96 ± 0.083 | 2.86 ± 0.082 | 2.96 ± 0.05 | 3.16 ± 0.09
HLLPRNEWIKAQEDVPY [QCR7] | 2.31 ± 0.072 | 1.68 ± 0.086 | 2.17 ± 0.089 | 1.88 ± 0.046
NWWHSEFEIPVSFNGFK [BRR2] | 1.49 ± 0.098 | 1.32 ± 0.068 | 1.14 ± 0.17 | 1.34 ± 0.058
MAESTTLETIEIHPITF [RRP43] | 3.04 ± 0.073 | 2.58 ± 0.047 | 3.06 ± 0.044 | 2.68 ± 0.04
RLNFNQNSSKIVNVLSK [SWI3] | 2.56 ± 0.057 | 2.7 ± 0.051 | 3.04 ± 0.048 | 2.93 ± 0.042
LNAIILKLEKLNTNRTF [SMC3] | 2.19 ± 0.047 | 2.31 ± 0.051 | 2.24 ± 0.09 | 2.76 ± 0.048
KIYDAFPQTAMLRRHAA [DIS3] | 2.41 ± 0.086 | 2.71 ± 0.079 | 2.58 ± 0.12 | 2.4 ± 0.061
EEWLNTKDPDEQQLFEI [CSN9] | 3.06 ± 0.11 | 3.16 ± 0.12 | 3.24 ± 0.051 | 3.15 ± 0.075
IPPLNKSLAMEHKSQVV [CSN12] | 1.26 ± 0.063 | 1.63 ± 0.078 | 1.49 ± 0.12 | 1.35 ± 0.071
ETEIKDLTQLLEKERSI [SMC4] | 3.34 ± 0.079 | 3.15 ± 0.048 | 3.24 ± 0.051 | 3.25 ± 0.039
NVVLVTNDRLNREAATK [DIS3] | 2.33 ± 0.086 | 2.9 ± 0.088 | 1.89 ± 0.21 | 2.37 ± 0.074

Sequence | protein stability index (doa10∆) | protein stability index (pdr5∆) | protein stability index (san1∆) | protein stability index (ubr1∆)
SKVYYNLGEYESAVKYA [RPN2] | 2.62 ± 0.16 | 2.9 ± 0.093 | 2.8 ± 0.084 | 2.84 ± 0.056
RVEPETFEIPQAHEIVI [SWI3] | 2.53 ± 0.073 | 2.84 ± 0.08 | 2.54 ± 0.079 | 2.94 ± 0.05
QQQQQQQQQQQQQQQQQ [GAL11] | 2.57 ± 0.032 | 2.78 ± 0.028 | 2.661 ± 0.026 | 2.903 ± 0.023
AVAEAYNNRSLLDFNTA [RPN6] | 3.16 ± 0.081 | 2.98 ± 0.077 | 3.11 ± 0.066 | 3.25 ± 0.11
AAEGLCKLFLADVFTDD [YCG1] | 3.25 ± 0.061 | 3.26 ± 0.061 | 3.14 ± 0.043 | 3.14 ± 0.039
MNLKKELQGYIELSVPD [SRB5] | 2.6 ± 0.21 | 3.26 ± 0.14 | 3.15 ± 0.075 | 2.83 ± 0.1
GGLNDPRLGSIDRNLKC [RPO21] | 3.35 ± 0.17 | 3.28 ± 0.11 | 3.32 ± 0.094 | 3.33 ± 0.086
EKERLESLTKEISAAHN [SMC3] | 3 ± 0.26 | 3.22 ± 0.15 | 2.79 ± 0.13 | 3.42 ± 0.19
PARSSSLRSNVVVAETS [YAR002W/NUP60] | 2.2 ± 0.04 | 2.62 ± 0.04 | 2.19 ± 0.058 | 2.58 ± 0.035
IIHVLTTMFENTGWSCS [RGR1] | 2.16 ± 0.054 | 2.33 ± 0.077 | 2.7 ± 0.077 | 2.73 ± 0.044
VGVHIADVTHFVKPGTA [DIS3] | 2.51 ± 0.055 | 2.14 ± 0.058 | 2.9 ± 0.052 | 2.76 ± 0.063
TLDREYITLKATFLKDD [QCR2] | 1.38 ± 0.065 | 1.44 ± 0.045 | 1.51 ± 0.1 | 1.5 ± 0.048
KENDTVMNTKLLQEGGS [ESC2] | 3.16 ± 0.12 | 3.2 ± 0.092 | 3.04 ± 0.078 | 3.21 ± 0.076
YASLKLPNQIPGEYITT [YMR129W/POM152] | 1.97 ± 0.049 | 2.19 ± 0.059 | 2.07 ± 0.057 | 2.09 ± 0.036
AGKVKSQTPKVEKTEKP [RPS30A] | 3.18 ± 0.078 | 2.9 ± 0.093 | 2.95 ± 0.072 | 2.93 ± 0.055
NNVSFNAKDIQIPVYDT [FAS1] | 2.36 ± 0.041 | 2.49 ± 0.046 | 2.18 ± 0.048 | 2.64 ± 0.041
EDLVDRIENPEKYAAAA [RPP0] | 3.05 ± 0.078 | 3.28 ± 0.099 | 2.93 ± 0.054 | 3.09 ± 0.057
DLDTVLKKDIESLRGIL [SRP72] | 1.63 ± 0.088 | 1.38 ± 0.096 | 1.37 ± 0.25 | 1.61 ± 0.089
TTLGKLSTSVGWKYEDV [RPL16A] | 2.87 ± 0.069 | 3 ± 0.071 | 2.97 ± 0.078 | 2.73 ± 0.073
GASIIQVIFEIFEISLQ [YML103C/NUP188] | 1.53 ± 0.046 | 1.82 ± 0.044 | 2.1 ± 0.065 | 2.06 ± 0.043
FQMNCYAKEDAFSYPRM [RPN2] | 2.53 ± 0.12 | 2.52 ± 0.078 | 2.48 ± 0.077 | 2.61 ± 0.047
DDDIEKQEQEEKIKSKK [YCG1] | 3.08 ± 0.067 | 2.99 ± 0.056 | 3.01 ± 0.052 | 3.14 ± 0.049
YDPQRDKRFSGSLKLPN [RPL1A] | 3.09 ± 0.065 | 3.33 ± 0.068 | 3.02 ± 0.052 | 3.08 ± 0.048
EHGLHAPAYAWSHNGPF [CYT1] | 2.83 ± 0.11 | 3 ± 0.073 | 2.52 ± 0.087 | 2.87 ± 0.054
REHFEKTVAVDSVFEQN [RPL3] | 2.94 ± 0.12 | 2.93 ± 0.18 | 2.12 ± 0.12 | 2.37 ± 0.12
TVRASSLQDLIYKRGQA [SMC2] | 2.12 ± 0.073 | 3 ± 0.088 | 2.62 ± 0.08 | 2.51 ± 0.036
